According to patent publication US12630596B2, “Engineered lysin-human defensin protein” (priority 2018, dated 2026):
Values after ≈ are worked out from the molar mass of the structure shown. Like-named read-outs stand apart in the source and are kept apart here.

Key:
C. difficile R20291 [1] = test: Optical drop assay, lytic activity on C. difficile R20291; type: cell-based, Clostridium difficile; details: strain R20291, 200 μg/ml
Method: (§1) The lytic activity of proteins LHD and LCD against C. difficile strains was determined as previously described (Wang, Euler et al. 2015). Briefly, C. difficile strains were cultured in an anaerobic chamber to mid-log phase, and the bacterial pellets were harvested by centrifugation at 3000×g for 5 min. Pellets were washed twice and re-suspended in sterilized ddH2O, and resuspensions were not buffered. Prior to tests, bacterial optical density at 600 nm (OD600) was adjusted to approximately 0.8-1.0. Proteins LHD and LCD were added into the cell re-suspension with the final concentration of 200 μg/ml. The drop in OD600 at 37° C. was measured every 10 minutes for 60 min˜90 min. Bacterial re-suspension with sterilized water was also set as a control. Three repeats were included in each test.

[2] = molecular target: Clostridium difficile toxin B (TcdB) (Clostridioides difficile, UniProt P18177); test: Inhibition of TcdB cytotoxicity in CT26 cells (cell rounding, non-glucosylated Rac1 Western blot); type: cell-based; details: pre-treatment 750 ng/ml 1 hr, TcdB 15 ng/ml 5 hrs
Clostridium difficile toxin B (TcdB), sequence (P18177 whole entry): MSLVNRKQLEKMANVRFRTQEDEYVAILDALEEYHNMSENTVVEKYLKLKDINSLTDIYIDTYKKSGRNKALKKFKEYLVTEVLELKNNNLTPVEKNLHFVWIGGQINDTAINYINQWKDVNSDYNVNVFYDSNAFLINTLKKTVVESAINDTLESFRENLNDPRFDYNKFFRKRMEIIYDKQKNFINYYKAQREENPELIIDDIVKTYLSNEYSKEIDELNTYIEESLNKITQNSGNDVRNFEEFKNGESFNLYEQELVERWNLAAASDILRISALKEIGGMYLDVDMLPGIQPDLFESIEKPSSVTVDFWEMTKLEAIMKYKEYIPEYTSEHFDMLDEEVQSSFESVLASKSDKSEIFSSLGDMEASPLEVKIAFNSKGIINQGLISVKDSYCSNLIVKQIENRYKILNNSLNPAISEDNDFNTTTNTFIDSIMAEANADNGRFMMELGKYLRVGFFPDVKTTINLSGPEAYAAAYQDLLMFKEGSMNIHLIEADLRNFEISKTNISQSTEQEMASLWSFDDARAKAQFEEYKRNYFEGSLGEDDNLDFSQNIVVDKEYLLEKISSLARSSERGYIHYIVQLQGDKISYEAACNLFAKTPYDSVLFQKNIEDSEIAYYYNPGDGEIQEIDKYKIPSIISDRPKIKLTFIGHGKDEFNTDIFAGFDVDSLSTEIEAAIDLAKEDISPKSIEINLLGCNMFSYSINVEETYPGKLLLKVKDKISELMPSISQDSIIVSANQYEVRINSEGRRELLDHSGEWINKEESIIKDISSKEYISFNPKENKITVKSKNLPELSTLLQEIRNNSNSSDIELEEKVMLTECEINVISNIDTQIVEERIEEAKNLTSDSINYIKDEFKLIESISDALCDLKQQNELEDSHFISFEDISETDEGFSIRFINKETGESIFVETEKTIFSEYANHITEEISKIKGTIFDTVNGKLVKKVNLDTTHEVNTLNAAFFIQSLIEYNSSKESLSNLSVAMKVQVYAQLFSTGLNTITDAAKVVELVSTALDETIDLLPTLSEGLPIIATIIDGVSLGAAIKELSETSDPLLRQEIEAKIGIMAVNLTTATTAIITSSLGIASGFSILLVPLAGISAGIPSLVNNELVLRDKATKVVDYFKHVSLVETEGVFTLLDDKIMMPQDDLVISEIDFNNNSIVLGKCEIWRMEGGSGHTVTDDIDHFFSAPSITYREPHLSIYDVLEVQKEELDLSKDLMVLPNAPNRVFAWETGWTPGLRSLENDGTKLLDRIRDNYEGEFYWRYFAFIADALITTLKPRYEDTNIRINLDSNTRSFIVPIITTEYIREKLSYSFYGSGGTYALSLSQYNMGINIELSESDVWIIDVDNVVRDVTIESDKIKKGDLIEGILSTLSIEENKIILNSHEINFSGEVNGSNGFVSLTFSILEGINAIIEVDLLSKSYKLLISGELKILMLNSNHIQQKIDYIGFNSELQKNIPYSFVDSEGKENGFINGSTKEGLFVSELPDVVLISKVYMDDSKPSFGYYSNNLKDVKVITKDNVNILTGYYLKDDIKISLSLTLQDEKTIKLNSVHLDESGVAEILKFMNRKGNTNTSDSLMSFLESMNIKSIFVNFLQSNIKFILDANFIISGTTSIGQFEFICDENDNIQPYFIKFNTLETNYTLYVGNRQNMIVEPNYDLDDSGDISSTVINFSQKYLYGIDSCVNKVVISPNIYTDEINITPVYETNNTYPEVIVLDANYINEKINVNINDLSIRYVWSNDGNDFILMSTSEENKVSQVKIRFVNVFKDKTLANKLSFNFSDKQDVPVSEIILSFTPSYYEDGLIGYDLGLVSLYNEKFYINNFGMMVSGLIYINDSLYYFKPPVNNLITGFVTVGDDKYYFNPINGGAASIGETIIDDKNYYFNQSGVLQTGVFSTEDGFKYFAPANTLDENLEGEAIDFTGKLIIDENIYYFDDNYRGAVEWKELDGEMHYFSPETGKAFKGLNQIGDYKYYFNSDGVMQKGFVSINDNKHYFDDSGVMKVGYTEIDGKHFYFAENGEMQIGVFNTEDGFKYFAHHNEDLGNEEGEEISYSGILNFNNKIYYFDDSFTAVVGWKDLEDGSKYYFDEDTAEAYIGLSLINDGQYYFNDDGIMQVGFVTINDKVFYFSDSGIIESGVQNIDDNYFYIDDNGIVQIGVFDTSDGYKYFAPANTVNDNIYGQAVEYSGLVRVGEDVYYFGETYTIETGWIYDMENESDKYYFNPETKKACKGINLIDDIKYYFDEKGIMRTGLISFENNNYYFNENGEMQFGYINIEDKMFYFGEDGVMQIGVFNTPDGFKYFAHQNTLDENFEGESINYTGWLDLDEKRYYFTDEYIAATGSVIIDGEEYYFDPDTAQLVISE
Method: (§2) (FIG. 5A) LHD inhibits TcdB-induced cell rounding. CT26 cells in 12-well plates were exposed to HD or LHD at 750 ng/ml (50 times of TcdB concentration) or nothing for 1 hour, followed by exposure to TcdB at 15 ng/ml for 5 hours. (FIG. 5B) Western-blot analysis of non-glucosylated Rac1 in CT26 cells treated with TcdB in the presence or absence of LHD or HD. TcdB glucosylates Rac1 in cells, serving as a readout for toxin cytotoxicity. Quantitation of Rac1 levels in Western-blot was shown in low panel (*p<0.05). (FIG. 5C) CT26 cells were lysed, and the cytosolic fraction was exposed to TcdB (15 ng/ml) with or without HD at 750 ng/ml (50 times of TcdB concentration) or LHD at 1500 ng/ml (same molecular concentration as HD) or nothing for 1 h followed by Western Blot analysis using a monoclonal antibody that only recognizes non-glucosylated Rac1. β-actin was used as an equal loading control. Quantitation of Rac1 levels in Western-blot was shown in low panel (****p<0.0001).
It was reported that the human defensin protein HD5 (HD) could inhibit TcdB (Giesemann, Guttenberg et al. 2008). Therefore, we evaluated the inhibitory effects of LHD and HD on TcdB. Briefly, CT26 cells in 12-well plates were exposed to LHD, synthesized HD or PBS at 750 ng/ml (50 times of TcdB concentration) for 1 hr, followed by exposure to TcdB at 15 ng/ml for 5 hrs. Total cell lysates were subjected to 12% SDS-PAGE separation, and transferred onto a Nylon membrane. Following blocking for 1 hr at room temperature with 5% skim milk, the membrane was incubated overnight at 4° C. with RAC1 antibody (1:1000, Cat: 610650, BD Biosciences) and β-actin antibody (1:10000, Cat: A5441, Sigma-Aldrich).

[3] = molecular target: Glucosyltransferase (GT) activity of TcdB (Clostridioides difficile, UniProt P18177); test: TcdB glucosyltransferase activity on Rac1 in CT26 cytosolic fraction; type: biochemical, Clostridium difficile; details: TcdB 15 ng/ml, 750 ng/ml, 1 hr
Glucosyltransferase (GT) activity of TcdB, sequence (P18177 whole entry): as above
Method: as §2
Glucosyltransferase (GT) activity of TcdB was also measured by its ability to glucosylate Rho GTPase Rac1 in cell lysates (Zhang, Shi et al. 2013). CT26 cell pellets were resuspended in a reaction buffer (50 mM HEPES, pH 7.5, 100 mM KCl, 1 mM MnCl2 and 2 mM MgCl2), and lysed by passing through a 30 G needle for 40 times. […]

C. difficile R20291 [4] = test: Minimum inhibitory concentration (MIC) on strain R20291; type: cell-based, Clostridium difficile; details: strain R20291, BHIS, 37° C. for 18 h
Method: The minimum inhibitory concentrations (MICs) of LHD and LCD were determined using the protocol of Wiegand, et al. (Wiegand, Hilpert et al. 2008) with some modifications, as described previously (Gilmer, Schmitz et al. 2017). In brief, strain R20291 was grown in BHIS and adjusted to ˜5×10^5 cells/ml in BHIS, and distributed into the wells of a 96-well round bottom polystyrene microtiter plate. In the wells of each row, either sterile-filtered lysin or control vehicle (metronidazole, vancomycin and fidaxomicin) was added with a final concertation varied from 200 μg/ml to 0.19 μg/ml (2-fold dilution) (Wiegand, Hilpert et al. 2008). The plates were incubated at 37° C. for 18 h. The MIC was “the lowest or minimum concentration of lysin or control vehicle that prevented the formation of a cell pellet (a measure of growth) on the bottom of the wells” (Gilmer, Schmitz et al. 2017). The MICs were also confirmed by measuring the OD600 values using a Bio-Rad plate reader (Bio-Rad, Hercules, CA).

[5] = tested on: C. difficile strains M120, VPI 10463, CD630, LC693, 1377; test: Optical drop assay, lytic activity on other clinical epidemic C. difficile strains; type: cell-based, Clostridium difficile; details: different types of clinical epidemic strains, 200 μg/ml
From the text: C. difficile strains R20291 (ribotype 027), M120 (ribotype 078), VPI 10463 (ribotype 087; ATCC 43255), CD630 (ribotype 012), LC693 (ribotype unknown, ST201), and 1377 (ribotype 012) were used in this study. Strains M120 and VPI 10463 were provided by Dr. Joseph A. Sorg from Texas A&M University. Strains R20291 and CD630 were provided by Dr. Abraham L. Sonenshein from Tufts University. Strains 1377 and LC693 were epidemic clinical strains in China (Li, Liu et al. 2015, Peng, Liu et al. 2017).
as §1

[6] = Clostridioides difficile, read-out: MIC

HD5: Human alpha-defensin 5 peptide (32 aa), synthesized; SEQ ID NO:3 (ATCYCRTGRCATRESLSGVCEISGRLYRLCCR) [reference compound]
lytic activity (drop in OD600) (C. difficile R20291 [1]): moderate lytic activity | cell rounding caused by TcdB [2]: decreased cell rounding | non-glucosylated Rac1 in cells (readout of cytotoxicity of TcdB) [2]: inhibited the cytotoxicity | glucosyltransferase activity of TcdB [3]: significantly inhibited

CN[C@H](CC(C)C)C(=O)N[C@H]1C(=O)N[C@@H](CC(N)=O)C(=O)N[C@H]2C(=O)N[C@H]3C(=O)N[C@H](C(=O)N[C@H](C(=O)O)c4cc(O)cc(O)c4-c4cc3ccc4O)[C@H](O)c3ccc(c(Cl)c3)Oc3cc2cc(c3O[C@@H]2O[C@H](CO)[C@@H](O)[C@H](O)[C@H]2O[C@H]2C[C@](C)(N)[C@H](O)[C@H](C)O2)Oc2ccc(cc2Cl)[C@H]1O [Vancomycin, vancomycin]
MIC (C. difficile R20291 [4]; [6]): 4 µg/mL (≈ 2.76 µM)

Cc1ncc([N+](=O)[O-])n1CCO [Metronidazole, metronidazole]
MIC (C. difficile R20291 [4]; [6]): 4 µg/mL (≈ 23.4 µM)

CCc1c(Cl)c(O)c(Cl)c(O)c1C(=O)O[C@H]1[C@H](O)[C@H](OC)[C@H](OC/C2=C\C=C\C[C@H](O)/C(C)=C/[C@H](CC)[C@@H](O[C@@H]3OC(C)(C)[C@@H](OC(=O)C(C)C)[C@H](O)[C@@H]3O)/C(C)=C/C(C)=C/C[C@@H]([C@@H](C)O)OC2=O)O[C@@H]1C [Fidaxomicin, fidaxomicin]
MIC (C. difficile R20291 [4]; [6]): 0.25 µg/mL (≈ 0.236 µM)

B1: LCD: Catalytic domain (179 aa) of the lysin of C. difficile phage phiC2; SEQ ID NO:2; included as a control (protein)
chain: MKICITVGHSILKSGACTSADGVVNEYQYNKSLAPVLADTFRKEGHKVDVIICPEKQFKTKNEEKSYKIPRVNSGGYDLLIELHLNASNGQGKGSEVLYYSNKGLEYATRICDKLGTVFKNRGAKLDKRLYILNSSKPTAVLIESFFCDNKEDYDKAKKLGHEGIAKLIVEGVLNKNIN
notes: Catalytic domain (179 aa) of the lysin of C. difficile phage phiC2; included as a control
lytic activity (drop in OD600) (C. difficile R20291 [1]): potent lytic activities | lytic activity (drop in OD600) [5]: potent lytic activities | MIC (C. difficile R20291 [4]): 1.56 µg/mL | glucosyltransferase activity of TcdB [3]: significantly inhibited
